The target in assay [1] is T1, IFN response factor 4 (IRF4), endogenous (human (endogenous in MM1.S and primary …, UniProt Q15306 1-451)).
T1 construct: IRF4, endogenous in human multiple myeloma cells (MM1.S line and primary patient MM cells), detected or precipitated by anti-IRF4; source: endogenous, MM1.S cells (fixed cells and lysate); endogenous, patient-derived primary MM cells
T1 sequence (looked up): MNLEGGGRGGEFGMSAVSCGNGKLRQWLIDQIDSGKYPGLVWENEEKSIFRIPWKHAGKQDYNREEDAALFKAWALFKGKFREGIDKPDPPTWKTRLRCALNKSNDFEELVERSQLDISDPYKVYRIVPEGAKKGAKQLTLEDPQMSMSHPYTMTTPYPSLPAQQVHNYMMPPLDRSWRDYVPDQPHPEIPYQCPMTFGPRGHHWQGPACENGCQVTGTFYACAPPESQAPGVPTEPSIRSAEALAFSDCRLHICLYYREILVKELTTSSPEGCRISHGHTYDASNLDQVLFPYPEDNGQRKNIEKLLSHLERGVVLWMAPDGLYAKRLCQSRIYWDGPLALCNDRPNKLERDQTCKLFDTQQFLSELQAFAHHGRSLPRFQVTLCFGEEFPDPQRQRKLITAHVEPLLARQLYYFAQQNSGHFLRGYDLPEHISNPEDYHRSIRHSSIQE
Description: proximity ligation assay (PLA). The note with it: MM1.S cells transfected with OE.HDAC11mut, read off a plot.

Assay [2] deals with T1, IFN response factor 4 (IRF4), endogenous. Description: proximity ligation; primary MM cells from patient samples, cultured with the patient's serum, untreated or with LPS (5 μg/mL, 24 hours). The note with it: partners not purified.

As for “HA-tagged WT HDAC11 (HDAC11^wt.HA) (from UniProt Q96DB2) HDAC11mut”, the response (# Foci Per Cell) in assay [1] (cytoplasmic foci, parent: est. 17) came to 18; in assay [1] (nuclear foci, parent: est. 105) it was 13.

B1: histone/protein deacetylase 11 (HDAC11), endogenous (enzyme, UniProt Q96DB2 1-347, looked up)
chain: MLHTTQLYQHVPETRWPIVYSPRYNITFMGLEKLHPFDAGKWGKVINFLKEEKLLSDSMLVEAREASEEDLLVVHTRRYLNELKWSFAVATITEIPPVIFLPNFLVQRKVLRPLRTQTGGTIMAGKLAVERGWAINVGGGFHHCSSDRGGGFCAYADITLAIKFLFERVEGISRATIIDLDAHQGNGHERDFMDDKRVYIMDVYNRHIYPGDRFAKQAIRRKVELEWGTEDDEYLDKVERNIKKSLQEHLPDVVVYNAGTDILEGDRLGGLSISPAGIVKRDELVFRMVRGRRVPILMVTSGGYQKRTARIIADSILNLFGLGLIGPESPSVSAQNSDTPLLPPAVP
notes: HDAC11, endogenous in human multiple myeloma cells (MM1.S line and primary patient MM cells), detected by mouse anti-HDAC11 in PLA; source: endogenous, MM1.S cells; endogenous, patient-derived primary MM cells
In the case of B1, the “fold increase of nuclear PLA complexes with LPS against untreated cells” value in assay [2] was 4.5 fold.

The values above are taken from paper PMC8783683, “Plasma cell dependence on histone/protein deacetylase 11 reveals a therapeutic target in multiple myeloma” (JCI Insight, 2021).
